Assay results: patent publication US20240279325A1 (Chugai, published 2024)
Substitutions are numbered along the chain they refer to.

T1: human FcγRIIa type H (allotype H131) extracellular domain with C-terminal His tag (human, UniProt P12318 34-217)
T1 construct: extracellular domain; also called FcγRIIaH; not shown: His tag at the C terminus
T1 sequence (looked up): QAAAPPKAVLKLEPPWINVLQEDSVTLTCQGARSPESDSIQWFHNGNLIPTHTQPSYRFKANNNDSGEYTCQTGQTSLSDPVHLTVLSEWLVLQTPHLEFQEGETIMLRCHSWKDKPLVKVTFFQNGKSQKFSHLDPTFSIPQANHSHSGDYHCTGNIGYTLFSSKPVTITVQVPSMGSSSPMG

T2: FcγRIIb extracellular domain with C-terminal His tag (human, UniProt P31994 43-217)
T2 construct: extracellular domain
T2 sequence (looked up): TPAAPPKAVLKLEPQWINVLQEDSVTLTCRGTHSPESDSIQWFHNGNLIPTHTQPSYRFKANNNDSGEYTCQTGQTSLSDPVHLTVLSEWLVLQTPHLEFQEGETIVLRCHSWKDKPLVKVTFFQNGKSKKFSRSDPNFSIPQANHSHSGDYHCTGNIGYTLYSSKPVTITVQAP

T3: FcγRIIa type R (allotype R131) extracellular domain with C-terminal His tag (human, UniProt P12318 34-217)
T3 construct: extracellular domain; also called FcγRIIaR; FcγRIIa R type
T3 sequence (looked up): T1 sequence (looked up) with H134R

B1: IL6R-BP185/IL6R-L (antibody, human IgG1, kappa, name in EU numbering)
heavy: QVQLQESGPGLVKPSETLSLTCAVSGHSISHDHAWSWVRQPPGEGLEWIGFISYSGITNYNPSLQGRVTISRDNSKNTLYLQMNSLRAEDTAVYYCARSLARTTAMDYWGEGTLVTVSSASTKGPSVFPLAPSSKSTSGGTAALGCLVKDYFPEPVTVSWNSGALTSGVHTFPAVLQSSGLYSLSSVVTVPSSSLGTQTYICNVNHKPSNTKVDKKVEPKSCDKTHTCPPCPAPDYLGDDSVFLFPPKPKDTLMISRTPEVTCVVVDVSHEDGEVKFNWYVDGVEVHNAKTKPREEQYNSTYRVVSVLTVLHQDWLNGKEYKCKVSNAALPKPIEKTISKAKGQPREPQVYTLPPSRDELTKNQVSLTCLVKGFYPSDIAVEWESNGQPENNYKTTPPVLDSDGSFFLYSKLTVDKSRWQQGNVFSCSVMHEALHNHYTQESLSLSP
light: not shown
notes: EU numbering; copies: 2 + 2
B2: IL6R-BP193/IL6R-L (antibody, human IgG1, kappa, name in EU numbering)
heavy: B1 heavy with Y236L, D239G, H270D, A328K
light: not shown
notes: EU numbering; copies: 2 + 2
B3: IL6R-BP192/IL6R-L (antibody, human IgG1, kappa, name in EU numbering)
heavy: B1 heavy with Y236L, D239G, H270D, Y298D, A328K
light: not shown
notes: EU numbering; copies: 2 + 2
B4: IL6R-BP210/IL6R-L (antibody, human IgG1, kappa, name in EU numbering)
heavy: B1 heavy with D235E, Y236L, H270D, A328K, K332R
light: not shown
notes: EU numbering; copies: 2 + 2
B5: IL6R-BP199/IL6R-L (antibody, human IgG1, kappa, name in EU numbering)
heavy: B1 heavy with Y236L, D239G, G273P, A328D, K332R
light: not shown
notes: EU numbering; copies: 2 + 2
B6: IL6R-BP190/IL6R-L (antibody, human IgG1, kappa, name in EU numbering)
heavy: B1 heavy with D235E, Y236L, H270D, A328K
light: not shown
notes: EU numbering; copies: 2 + 2
B7: IL6R-BP208/IL6R-L (antibody, human IgG1, kappa, name in EU numbering)
heavy: B1 heavy with Y236L, H270D, A328K, K332R
light: not shown
notes: EU numbering; copies: 2 + 2
B8: IL6R-BP201/IL6R-L (antibody, human IgG1, kappa, name in EU numbering)
heavy: B1 heavy with Y236L, A328K, K332R
light: not shown
notes: EU numbering; copies: 2 + 2
B9: IL6R-BP194/IL6R-L (antibody, human IgG1, kappa, name in EU numbering)
heavy: B1 heavy with H270D
light: not shown
notes: EU numbering; copies: 2 + 2
B10: IL6R-BP186/IL6R-L (antibody, human IgG1, kappa, name in EU numbering)
heavy: B1 heavy with Y298D
light: not shown
notes: EU numbering; copies: 2 + 2
B11: IL6R-BP214/IL6R-L (antibody, human IgG1, kappa, name in EU numbering)
heavy: B1 heavy with G273P, Y298D, A328D
light: not shown
notes: EU numbering; copies: 2 + 2
B12: IL6R-BP503/IL6R-L (antibody, human IgG1, kappa, name in EU numbering)
heavy: B1 heavy with Y236L, V266I, S269A, H270E, Y298D, A328K, A329G, K332R, P398M
light: not shown
notes: copies: 2 + 2
B13: IL6R-BP499/IL6R-L (antibody, human IgG1, kappa, name in EU numbering)
heavy: B1 heavy with Y236L, V266I, S269A, H270E, Y298D, A328K, K332R, P398L
light: not shown
notes: copies: 2 + 2
B14: IL6R-BP489/IL6R-L (antibody, human IgG1, kappa, name in EU numbering)
heavy: B1 heavy with Y236L, V266I, S269A, H270E, Y298D, A328K, K332R, P398M
light: not shown
notes: copies: 2 + 2
B15: IL6R-BP491/IL6R-L (antibody, human IgG1, kappa, name in EU numbering)
heavy: B1 heavy with D235E, Y236L, V266I, S269A, H270E, Y298D, A328K, K332R
light: not shown
notes: also called IL6R-491/IL6R-L; copies: 2 + 2
B16: IL6R-BP508/IL6R-L (antibody, human IgG1, kappa, name in EU numbering)
heavy: B1 heavy with Y236L, V266I, S269A, H270E, E274P, Y298D, A328K, K332A
light: not shown
notes: copies: 2 + 2
B17: IL6R-BP498/IL6R-L (antibody, human IgG1, kappa, name in EU numbering)
heavy: B1 heavy with Y236L, V266I, S269A, H270E, A328K, K332R, P398L
light: not shown
notes: copies: 2 + 2
B18: IL6R-BP496/IL6R-L (antibody, human IgG1, kappa, name in EU numbering)
heavy: B1 heavy with Y236L, V266I, S269A, H270E, Y298D, A328K, K332A
light: not shown
notes: copies: 2 + 2
B19: IL6R-BP497/IL6R-L (antibody, human IgG1, kappa, name in EU numbering)
heavy: B1 heavy with Y236L, V266I, S269A, H270E, A328K, A329G, K332R
light: not shown
notes: copies: 2 + 2
B20: IL6R-BP481/IL6R-L (antibody, human IgG1, kappa, name in EU numbering)
heavy: B1 heavy with Y236L, V266I, S269A, H270E, A328K, K332A
light: not shown
notes: copies: 2 + 2
B21: IL6R-BP509/IL6R-L (antibody, human IgG1, kappa, name in EU numbering)
heavy: B1 heavy with Y236L, V266I, S269A, H270E, E274D, Y298D, A328K, K332A
light: not shown
notes: copies: 2 + 2
B22: IL6R-BP502/IL6R-L (antibody, human IgG1, kappa, name in EU numbering)
heavy: B1 heavy with Y236L, V266I, S269A, H270E, Y298D, A328K, A329G, K332R
light: not shown
notes: copies: 2 + 2
B23: IL6R-BP269/IL6R-L (antibody, human IgG1, kappa, name in EU numbering)
heavy: B1 heavy with D235E, Y236L, H270E, Y298D, A328K, K332A
light: not shown
notes: copies: 2 + 2
B24: IL6R-BP505/IL6R-L (antibody, human IgG1, kappa, name in EU numbering)
heavy: B1 heavy with Y236L, V266I, S269A, H270E, E274D, A328K, K332A
light: not shown
notes: copies: 2 + 2
B25: IL6R-BP479/IL6R-L (antibody, human IgG1, kappa, name in EU numbering)
heavy: B1 heavy with Y236L, V266I, V268L, S269A, H270E, A328K, K332A
light: not shown
notes: copies: 2 + 2
B26: IL6R-BP262/IL6R-L (antibody, human IgG1, kappa, name in EU numbering)
heavy: B1 heavy with D235E, Y236L, H270E, A328K, K332A
light: not shown
notes: copies: 2 + 2
B27: IL6R-BP484/IL6R-L (antibody, human IgG1, kappa, name in EU numbering)
heavy: B1 heavy with Y236L, S269A, H270E, E271D, A328K, K332A
light: not shown
notes: copies: 2 + 2
B28: IL6R-BP511/IL6R-L (antibody, human IgG1, kappa, name in EU numbering)
heavy: B1 heavy with D235E, Y236L, V266I, S269A, H270E, E274P, Y298D, A328K, K332R
light: not shown
notes: copies: 2 + 2
B29: IL6R-BP492/IL6R-L (antibody, human IgG1, kappa, name in EU numbering)
heavy: B1 heavy with D235E, Y236L, D239G, V266I, S269A, H270E, A328K, K332A
light: not shown
notes: copies: 2 + 2
B30: IL6R-BP500/IL6R-L (antibody, human IgG1, kappa, name in EU numbering)
heavy: B1 heavy with D235E, Y236L, V266I, S269A, H270E, Y298D, A328K, K332A
light: not shown
notes: copies: 2 + 2
B31: IL6R-BP487/IL6R-L (antibody, human IgG1, kappa, name in EU numbering)
heavy: B1 heavy with Y236L, V266I, S269A, H270E, A328K, K332R, P398M
light: not shown
notes: copies: 2 + 2

Biological target: T4, human FcγRIa extracellular domain with C-terminal His tag (human, UniProt P12314 16-292)
T4 construct: not shown: His tag at the C terminus
Assay: SPR (Biacore), antibody captured, FcγR analyte

T4 sequence (P12314 16-292): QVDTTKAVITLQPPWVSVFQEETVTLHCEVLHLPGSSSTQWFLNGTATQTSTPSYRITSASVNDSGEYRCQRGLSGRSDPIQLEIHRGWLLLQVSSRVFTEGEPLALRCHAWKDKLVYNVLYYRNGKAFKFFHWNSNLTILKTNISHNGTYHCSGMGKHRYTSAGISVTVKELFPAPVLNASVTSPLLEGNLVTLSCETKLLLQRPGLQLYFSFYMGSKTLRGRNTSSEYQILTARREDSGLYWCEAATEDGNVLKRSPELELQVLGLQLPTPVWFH

Row | Binder | Kd [µM]
1 | B1 | 0.053
2 | B2 | 0.0053
3 | B3 | 0.0056
4 | B4 | 0.055
5 | B5 | 0.0054
6 | B6 | 0.053

Biological target: T1, human FcγRIIa type H (allotype H131) …
Assay: SPR (Biacore), antibody captured, FcγR analyte

Row | Binder | Kd [µM]
7 | B7 | 83
8 | B8 | 69
9 | B9 | 85
10 | B4 | 95
11 | B10 | 93
12 | B11 | 92

Biological target: T2, FcγRIIb extracellular domain with …
Assay: SPR; KD for FcγRIIaH divided by KD for FcγRIIb

Row | Binder | KD(IIaH)/KD(IIb)
13 | B12 | 503
14 | B13 | 685
15 | B14 | 870
16 | B15 | 724
17 | B16 | 962
18 | B17 | 564
19 | B18 | 201
20 | B19 | 236
21 | B20 | 350
22 | B21 | 444
23 | B22 | 352
24 | B23 | 637
25 | B24 | 514
26 | B25 | 268
27 | B26 | 375
28 | B27 | 241
29 | B28 | 1240
30 | B29 | 678
31 | B30 | 1030
32 | B31 | 730

Biological target: T2, FcγRIIb extracellular domain with …
Assay: SPR; KD for FcγRIIaR divided by KD for FcγRIIb

Row | Binder | KD(IIaR)/KD(IIb)
33 | B12 | 33.2
34 | B13 | 33.8
35 | B14 | 42.8
36 | B15 | 38.8
37 | B16 | 26
38 | B17 | 30.3
39 | B18 | 25.5
40 | B19 | 21
41 | B20 | 20.5
42 | B21 | 29.2
43 | B22 | 29.5
44 | B23 | 19.6
45 | B24 | 20
46 | B25 | 16.1
47 | B26 | 17
48 | B27 | 17.1
49 | B28 | 50.6
50 | B29 | 38.8
51 | B30 | 29.9
52 | B31 | 33.8

Biological target: T3, FcγRIIa type R (allotype R131) …
Assay: SPR; KD of IL6R-B3/IL6R-L divided by KD of the variant

Row | Binder | KD(IIaR) OF PARENT POLYPEPTIDE/KD(IIaR) OF ALTERED POLYPEPTIDE
53 | B12 | 19.4
54 | B13 | 22.3
55 | B14 | 25.7
56 | B15 | 9.3
57 | B16 | 2
58 | B17 | 21.7
59 | B18 | 2.3
60 | B19 | 12.9
61 | B20 | 2.8
62 | B21 | 2.1
63 | B22 | 10.1
64 | B23 | 0.5
65 | B24 | 2.6
66 | B25 | 1.2
67 | B26 | 0.5
68 | B27 | 1.4
69 | B28 | 6.3
70 | B29 | 1.2
71 | B30 | 1.5
72 | B31 | 28.3

Biological target: T2, FcγRIIb extracellular domain with …
Assay: as above

Row | Binder | KD(IIb) OF PARENT POLYPEPTIDE/KD(IIb) OF ALTERED POLYPEPTIDE
73 | B12 | 1810
74 | B13 | 2120
75 | B14 | 3100
76 | B15 | 1020
77 | B16 | 149
78 | B17 | 1880
79 | B18 | 168
80 | B19 | 764
81 | B20 | 160
82 | B21 | 174
83 | B22 | 810
84 | B23 | 27.4
85 | B24 | 145
86 | B25 | 55.5
87 | B26 | 25.8
88 | B27 | 67.3
89 | B28 | 891
90 | B29 | 131
91 | B30 | 128
92 | B31 | 2700
